Measurements: US20170183667A1 (ANAEROPHARMA SCIENCE, published 2017)

What was measured:
[1] = biological target: T1, Recombinant Mouse PD-1 Fc Chimera (R&D Systems) (mouse, UniProt Q02242 25-167); test: ELISA, mPD-1 Fc chimera immobilised, scFv 10 ng/mL
T1 construct: Bought reagent; also called mPD-1; Fc part of the bought chimera not given, not described
T1 sequence (looked up): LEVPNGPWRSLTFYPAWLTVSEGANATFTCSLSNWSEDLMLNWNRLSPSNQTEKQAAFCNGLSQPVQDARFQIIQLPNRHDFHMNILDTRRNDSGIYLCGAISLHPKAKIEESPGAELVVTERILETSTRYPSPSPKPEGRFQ
Protocol: (§1) After the solution was removed, 350 μL of 1×PBS was dispensed and the solution was removed. This operation was repeated three times to carry out washing. In the above plates, 350 μL of a 1% BSA solution was dispensed and incubated at room temperature for 2 hours to perform blocking. After the solution was removed, 350 μL of 1×PBS was dispensed and the solution was removed. This operation was repeated three times to carry out washing.
(§2) The anti-PD-1-3 scFv antibody purified from a bacterium of the genus Bifidobacterium was diluted with a signal enhancing reagent (Signal Enhancer HIKARI, manufactured by Nacalai Tesque) to prepare solutions having a concentration of 1000 ng/mL, 100 ng/mL and 10 ng/mL. Each solution (100 μL) was dispensed in the plates to which blocking treatment was already applied. […] To blank wells, a signal enhancing reagent (100 μL) alone was dispensed. After the plates were sealed and incubated at room temperature for 2 hours, immobilized mPD-1 was allowed to react with the anti-PD-1-3 scFv antibody. After the solution was removed, 350 μL of 1×PBS was dispensed and the solution was removed. This operation was repeated three times to carry out washing.
(§3) Absorbance at 450 nm was measured, whereas absorbance at 570 nm was measured as a control.

[2] = biological target: T2, Recombinant Human CTLA-4-Fc Chimera, carrier-free (BioLegend) (human, UniProt P16410 36-161); test: ELISA, hCTLA-4-Fc chimera immobilised
T2 construct: Bought reagent; also called hCTLA-4; Fc part of the bought chimera not given, not described
T2 sequence (looked up): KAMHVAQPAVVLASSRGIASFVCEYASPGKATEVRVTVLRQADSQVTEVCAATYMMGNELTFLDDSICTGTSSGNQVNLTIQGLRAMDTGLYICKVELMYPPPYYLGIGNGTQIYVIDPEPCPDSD

[3] = biological target: T1, Recombinant Mouse PD-1 Fc Chimera (R&D …); test: ELISA, mPD-1 Fc chimera immobilised, scFv 1000 ng/mL
Protocol: as §1, §2, §3

[4] = biological target: T1, Recombinant Mouse PD-1 Fc Chimera (R&D …); test: ELISA, mPD-1 Fc chimera immobilised, scFv 100 ng/mL
Protocol: as §1, §2, §3

[5] = biological target: T3, Recombinant Human PD-1 Fc Chimera (R&D Systems) (human, UniProt Q15116 25-167); test: ELISA, hPD-1 Fc chimera immobilised, scFv 100 ng/mL
T3 construct: Bought reagent; also called hPD-1; Fc part of the bought chimera not given, not described
Protocol: (§4) After the solution was removed, 350 μL of 1×PBS was dispensed and the solution was removed. This operation was repeated three times to carry out washing. In the above plates, 350 μL of a 1% BSA solution was dispensed and incubated at room temperature for 2 hours to carry out blocking. After removing the solution, 350 μL of 1×PBS was dispensed and the solution was removed. This operation was repeated three times to carry out washing.
(§5) Each solution (100 μL) was dispensed in the plates to which blocking treatment was already applied. […] To a blank well, a signal enhancing reagent (100 μL) alone was dispensed. After the plates were sealed and incubated at room temperature for 2 hours, immobilized hPD-1 was allowed to react with each of the scFv antibodies. After the solution was removed, 350 μL of 1×PBS was dispensed and the solution was removed. This operation was repeated three times to carry out washing.
(§6) This solution (200 μL) was dispensed in the plates. The plates were sealed and incubated at room temperature for 20 minutes. […] Absorbance at 450 nm was measured, whereas absorbance at 570 nm was measured as a control.

[6] = biological target: T3, Recombinant Human PD-1 Fc Chimera (R&D …); test: ELISA, hPD-1 Fc chimera immobilised, scFv 1 ng/mL
Protocol: as §4, §5, §6

[7] = biological target: T3, Recombinant Human PD-1 Fc Chimera (R&D …); test: ELISA, hPD-1 Fc chimera immobilised, scFv 1000 ng/mL
Protocol: as §4, §5, §6

[8] = biological target: T3, Recombinant Human PD-1 Fc Chimera (R&D …); test: ELISA, hPD-1 Fc chimera immobilised, scFv 10 ng/mL
Protocol: as §4, §5, §6

T3 sequence (Q15116 25-167, change not shown): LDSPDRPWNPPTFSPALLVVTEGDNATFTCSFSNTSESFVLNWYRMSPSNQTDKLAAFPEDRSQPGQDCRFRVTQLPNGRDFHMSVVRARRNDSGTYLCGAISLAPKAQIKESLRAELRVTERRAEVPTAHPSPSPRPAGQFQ

B1: anti-PD-1-3 scFv antibody purified from Bifidobacterium longum 105-A/pHuSP7L20-scFv-PD-1-3 strain (scFv)
scFv: DSAQTSAVVSSRSFPKASSVMEVRLLESGGGLVKPEGSLKLSCVASGFTFSDYFMSWVRQAPGKGLEWVAHIYTKSYNYATYYSGSVKGRFTISRDDSRSMVYLQMNNLRTEDTATYYCTRDGSGYPSLDFWGQGTQVTVSSGGGGSGGGGSGGGGSYELTQPPSASVNVGETVKITCSGDQLPKYFADWFHQRSDQTILQVIYDDNKRPSGIPERISGSSSGTTATLTIRDVRAEDEGDYYCFSGYVDSDSKLYVFGSGTQLTVLGHHHHHH
notes: also called anti-mouse PD-1 scFv antibody; mPD-1 scFv
absorbance 450 nm (570 nm as control) [1]: 0.312 | binding result [2]: no binding (tested: up to 1000 ng/mL) | absorbance 450 nm (570 nm as control) [3]: 3.11 | absorbance 450 nm (570 nm as control) [4]: 0.561

B2: anti-CTLA-4-1 scFv antibody purified from Bifidobacterium longum 105-A/pHuSP7L20-scFv-CTLA-4-1 strain (scFv)
scFv: DSAQTSAVVSSRSFPKASSVQVQLVESGGGVVQPGRSLRLSCAASGFTFSSYGMHWVRQAPGKGLEWVAVIWYDGSNKYYADSVKGRFTISRDNSKNTLYLQMNSLRAEDTAVYYCARDPRGATLYYYYYGMDVWGQGTTVTVSSGGGGSGGGGSGGGGSDIQMTQSPSSLSASVGDRVTITCRASQSINSYLDWYQQKPGKAPKLLIYAASSLQSGVPSRFSGSGSGTDFTLTISSLQPEDFATYYCQQYYSTPFTFGPGTKVEIKHHHHHH
absorbance 450 nm (570 nm as control) [5]: -0.117 | absorbance 450 nm (570 nm as control) [6]: -0.092 | absorbance 450 nm (570 nm as control) [7]: -0.038 | absorbance 450 nm (570 nm as control) [8]: -0.106

B3: anti-PD-1-2 scFv antibody purified from Bifidobacterium longum 105-A/pHuSP7L20-scFv-PD-1-2 strain (scFv)
scFv: DSAQTSAVVSSRSFPKASSVMQVQLQESGPGLVKPSQSLSLTCTVTGHSITSDYAWNWIRQFPGDKLEWMGYISYSGYTTYNPSLKSRVSITRDTSKNQFFLQLNSVTTEDTATYFCARDLDYGPWFAYWGQGTTVTVSSGGGGSGGGGSGGGGSDIQMTQSPASLSASVGETVTLTCRASENIHNYLAWYQQKQGKSPQLLVYNVKTLADGVPSRFSGSGSGTQYSLKINSLQPEDFGSYYCQHFWSSPWTFGGGTKLEIKRHHHHHH
notes: also called anti-human PD-1 antibody
absorbance 450 nm (570 nm as control) [5]: 3.06 | absorbance 450 nm (570 nm as control) [1]: 0.075 | absorbance 450 nm (570 nm as control) [6]: 0.058 | absorbance 450 nm (570 nm as control) [7]: 2.82 | absorbance 450 nm (570 nm as control) [3]: 0.014 | absorbance 450 nm (570 nm as control) [4]: -0.01 | absorbance 450 nm (570 nm as control) [8]: 0.912
